Assay results taken from patent US20230241168A1 (ALPINE IMMUNE SCIENCES, published 2023).
Numbering of substitutions follows the chain as printed. Names and notes keep the numbering of the source. Where two headings read alike, the source gives them in different places. No end group written: not given here.

T1: recombinant human APRIL (human, UniProt O75888 105-250, limits assumed)
T1 sequence (looked up): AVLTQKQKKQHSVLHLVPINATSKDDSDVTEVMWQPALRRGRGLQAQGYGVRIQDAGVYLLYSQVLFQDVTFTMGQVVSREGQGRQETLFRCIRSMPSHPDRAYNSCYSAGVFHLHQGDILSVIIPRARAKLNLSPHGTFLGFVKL

T2: human CD80 (human, UniProt P33681 35-288)
T2 sequence (looked up): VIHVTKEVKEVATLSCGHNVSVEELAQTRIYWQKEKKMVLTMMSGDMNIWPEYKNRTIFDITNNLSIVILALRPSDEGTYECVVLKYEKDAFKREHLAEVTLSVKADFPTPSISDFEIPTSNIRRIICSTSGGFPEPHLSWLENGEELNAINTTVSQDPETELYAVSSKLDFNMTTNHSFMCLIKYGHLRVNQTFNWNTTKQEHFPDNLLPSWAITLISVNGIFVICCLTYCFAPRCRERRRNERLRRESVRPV

T3: human CD86 (human, UniProt P42081 24-329)
T3 sequence (looked up): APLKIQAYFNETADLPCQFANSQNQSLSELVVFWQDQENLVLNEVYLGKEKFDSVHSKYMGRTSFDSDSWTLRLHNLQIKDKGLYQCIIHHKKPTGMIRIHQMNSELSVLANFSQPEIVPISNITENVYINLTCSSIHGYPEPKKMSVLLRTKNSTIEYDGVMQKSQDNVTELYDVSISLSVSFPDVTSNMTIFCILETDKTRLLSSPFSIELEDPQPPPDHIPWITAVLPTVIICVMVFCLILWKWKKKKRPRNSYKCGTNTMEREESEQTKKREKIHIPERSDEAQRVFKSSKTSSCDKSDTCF

B1: 528 TACI CRD2-Fc (Fc fusion, not shown: a dimerising Fc or GST)
chain: SLSCRKEQGKFYDHLLRDCISCASICGQHPKQCAYFCENKLRS
modifications: not fully specified (C-terminus); cysteine pairing not given here; also: Fc fusion, linker and Fc not given here
B2: CTLA-4 92 GSG4S Fc (G4S)2 BCMA 357 (Fc fusion)
chain: KAMHVAQPAVVLASSRGIASFVCEYASPWKATEVRVTVLRQADSQVTEVCAATYMMGSELTFPDDSICTGTSSGNQVNLTIRGLRAMDTGLYICKVEQMYPPPYLLGIGNGTQIYVIDPEPCPDSDGSGGGGSEPKSSDKTHTCPPCPAPEAEGAPSVFLFPPKPKDTLMISRTPEVTCVVVDVSHEDPEVKFNWYVDGVEVHNAKTKPREEQYNSTYRVVSVLTVLHQDWLNGKEYKCKVSNKALPAPIEKTISKAKGQPREPQVYTLPPSRDELTKNQVSLTCLVKGFYPSDIAVEWESNGQPENNYKTTPPVLDSDGSFFLYSKLTVDKSRWQQGNVFSCSVMHEALHNHYTQKSLSLSPGGGGGSGGGGSLQMAGQCSQNEYFDSLLYACIPCQLRCSSNTPPLTCQRYCNASVTNSVKGTNA
B3: CTLA-4 186GSG4S-Fc-(G4S)4-BCMA 381 (Fc fusion)
chain: KAMHVAQPAVVLASSRGIASFVCEYASPWKATEVRVTVLRQADSQVTEVCAATYMMGNELTFLDDSICTGTSSGNQVNLTIQGLRAMDTGLYICKVEQMYPPPYLLGIGNGTQIYVIDPEPCPDSDGSGGGGSEPKSSDKTHTCPPCPAPEAEGAPSVFLFPPKPKDTLMISRTPEVTCVVVDVSHEDPEVKFNWYVDGVEVHNAKTKPREEQYNSTYRVVSVLTVLHQDWLNGKEYKCKVSNKALPAPIEKTISKAKGQPREPQVYTLPPSRDELTKNQVSLTCLVKGFYPSDIAVEWESNGQPENNYKTTPPVLDSDGSFFLYSKLTVDKSRWQQGNVFSCSVMHEALHNHYTQKSLSLSPGGGGGSGGGGSGGGGSGGGGSLQMAGQCSQNEYFDALLYACIPCQLRCSSNTPPLTCQQYCNASVTNSVKGTNA
B4: CTLA-4 186GSG4S-Fc-(G4S)4-BCMA 411 (Fc fusion)
chain: B3 chain with A399S, Y402R, Q422R
B5: CTLA-4 186GSG4S-Fc-(G4S)4-BCMA 405 (Fc fusion)
chain: B3 chain with A399S, Y402K, Q422R
B6: CTLA-4 186-GSG4S-Fc-(G4S)4-BCMA 406 (Fc fusion)
chain: B3 chain with A399S, Y402L, Q422R
B7: CTLA-4 186 GSG4S Fc (G4S)4 TACI 541 (Fc fusion)
chain: KAMHVAQPAVVLASSRGIASFVCEYASPWKATEVRVTVLRQADSQVTEVCAATYMMGNELTFLDDSICTGTSSGNQVNLTIQGLRAMDTGLYICKVEQMYPPPYLLGIGNGTQIYVIDPEPCPDSDGSGGGGSEPKSSDKTHTCPPCPAPEAEGAPSVFLFPPKPKDTLMISRTPEVTCVVVDVSHEDPEVKFNWYVDGVEVHNAKTKPREEQYNSTYRVVSVLTVLHQDWLNGKEYKCKVSNKALPAPIEKTISKAKGQPREPQVYTLPPSRDELTKNQVSLTCLVKGFYPSDIAVEWESNGQPENNYKTTPPVLDSDGSFFLYSKLTVDKSRWQQGNVFSCSVMHEALHNHYTQKSLSLSPGGGGGSGGGGSGGGGSGGGGSSLSCRKEQGEYYDHLLRDCISCASICGQHPKQCADFCENKLRS
B8: CTLA-4 186 GSG4S Fc (G4S)4 (TACI 542) (Fc fusion)
chain: B7 chain with Q392E, E394K, Y395F, R401Q, D419Y
B9: Belimumab (antibody, V domains shown)
VH: QVQLQQSGAEVKKPGSSVRVSCKASGGTFNNNAINWVRQAPGQGLEWMGGIIPMFGTAKYSQNFQGRVAITADESTGTASMELSSLRSEDTAVYYCARSRDLLLFPHHALSPWGRGTMVTVSS
VL: SSELTQDPAVSVALGQTVRVTCQGDSLRSYYASWYQQKPGQAPVLVIYGKNNRPSGIPDRFSGSSSGNTASLTITGAQAEDEADYYCSSRDSSGNHWVFGGGTELTVLG

Key:
Assay in all cases: cell-based or functional assay
[1] = molecular target: recombinant human APRIL (human) (UniProt O75888); set-up: IC50 APRIL (Δ TACI 30-110-Fc) / IC50 BAFF (Δ TACI 30-110-Fc): unit not given beside the values
[2] = molecular target: recombinant human BAFF (human) (UniProt Q9Y275); set-up: IC50 APRIL (Δ TACI 30-110-Fc) / IC50 BAFF (Δ TACI 30-110-Fc): unit not given beside the values
recombinant human APRIL [3] = molecular target: T1, recombinant human APRIL
recombinant human BAFF [4] = molecular target: T4, recombinant human BAFF (human, UniProt Q9Y275 134-285)
human CD80 = molecular target: T2, human CD80
human CD86 = molecular target: T3, human CD86
recombinant human APRIL [5] = molecular target: T1, recombinant human APRIL; remark: listed apart in the source
recombinant human BAFF [6] = molecular target: T4, recombinant human BAFF; remark: listed apart in the source

| Molecule | IC50 (nM) APRIL [1] | IC50 APRIL (Δ TACI 30-110-Fc) [1] | IC50 (nM) BAFF [2] | IC50 BAFF (Δ TACI 30-110-Fc) [2] | IC50 (nM) APRIL (recombinant human APRIL [3]) | IC50 APRIL (Δ Parental vTD) (recombinant human APRIL [3]) | IC50 (nM) BAFF (recombinant human BAFF [4]) | IC50 BAFF (Δ Parental vTD) (recombinant human BAFF [4]) | CD80 IC50 (human CD80) | CD86 IC50 (human CD86) | CD80 IC50 (Δ Parental CTLA-4) (human CD80) | CD86 IC50 (Δ Parental CTLA-4) (human CD86) | IC50 (nM) APRIL (recombinant human APRIL [5]) | IC50 APRIL (Δ TACI 30-110-Fc) (recombinant human APRIL [5]) | IC50 (nM) BAFF (recombinant human BAFF [6]) | IC50 BAFF (Δ TACI 30-110-Fc) (recombinant human BAFF [6]) |
| --- | --- | --- | --- | --- | --- | --- | --- | --- | --- | --- | --- | --- | --- | --- | --- | --- |
| TACI 13-118-Fc (Fc fusion) | 9100 nM | 2.37 | 7700 nM | 1.33 |  |  |  |  |  |  |  |  |  |  |  |  |
| TACI 30-110-Fc (Fc fusion) | 3850 nM | 1 | 5770 nM | 1 |  |  |  |  |  |  |  |  |  |  |  |  |
| B1 | 369 nM | 0.1 | 1330 nM | 0.23 |  |  |  |  |  |  |  |  |  |  |  |  |
| B2 |  |  |  |  | 0.683 nM | 1 ratio | 6.27 nM | 1.2 ratio | 22.7 nM | 16.1 nM |  |  |  |  |  |  |
| B3 |  |  |  |  | 1.27 nM |  | 0.282 nM |  | 26.1 nM | 11.9 nM | 0.8 ratio | 1.5 ratio |  |  |  |  |
| B4 |  |  |  |  | 2.37 nM |  | 0.133 nM |  | 32.7 nM | 9 nM | 1 ratio | 1.1 ratio |  |  |  |  |
| B5 |  |  |  |  | 18.4 nM |  | 0.16 nM |  | 70.1 nM | 10.8 nM | 2.1 ratio | 1.3 ratio |  |  |  |  |
| B6 |  |  |  |  | 0.997 nM |  | 0.49 nM |  | 25.2 nM | 8.1 nM | 0.8 ratio | 1.3 ratio | 269 nM | 0.07 ratio | 2630 nM | 0.46 ratio |
| B7 |  |  |  |  | 1.56 nM |  | 0.103 nM |  | 56.9 nM | 10.2 nM | 1.7 ratio | 1.2 ratio | 272 nM | 0.07 ratio | 1260 nM | 0.22 ratio |
| B8 |  |  |  |  | 2.49 nM |  | 0.153 nM |  | 82.6 nM | 9 nM | 2.5 ratio | 1.1 ratio |  |  |  |  |
| B9 |  |  |  |  |  |  |  |  |  |  |  |  | 215000 nM | 55.8 ratio | 2500 nM | 0.43 ratio |
